Measurements reported in patent US20240018255A1 (QURE BIOTECHNOLOGY SHANGHAI, published 2024).
Changes are numbered by the printed parent chain. Values belong to the binder of their own block, whether it stands above or below them.

Experiments:
[1] = target: T1, human SIRPα naturally expressed on human renal clear cell adenocarcinoma 786-O cells (human, UniProt P78324 31-504); experiment: FACS on 786-O cells, PE-anti human FC secondary, MFI; unit from the axis Log[Abs,nM]
T1 construct: whole, on cells
Experimental: Blocking: the cells were resuspended with 2% FBS and were seeded into 96-well U bottom plate with 2E5/well, 200 μl/well, then subjected to ice bath for 1 h. Centrifugation was performed at 300 g for 3 min, and the supernatant was discarded. Antibody incubation: 10 μg/ml antibodies for incubation were diluted at 1:3, 100 μl/well, and subjected to ice bath for 1 h. Centrifugation was performed, and the supernatant was discarded. Pre-cooled PBS was added at 200 μl/well, centrifuged at 300 g for 5 min to discard supernatant, which was repeated twice. Secondary antibody: PE-anti human FC (1:200) 50 μl/well was subjected to ice bath for 0.5h. Centrifugation was performed and the supernatant was discarded. Pre-cooled PBS was added at 200 μl/well, centrifuged at 300 g for 5 min to discard supernatant, which was repeated 3 times. The mean fluorescence values were read on FACS.

[2] = target: SIRPα V10 fusion Fc (mouse IgG2a) (human; mouse); experiment: ELISA, plate coated with SIRPα V10-Fc (mouse IgG2a), anti-hFab secondary, OD450
Experimental: (§1) The plate was coated with SIRPα V1/V2/V3/V4/V5/V6/V7/V8/V9/V10 at 1 μg/ml, 60 μl/well overnight at 4° C., and washed twice with PBST; blocked with 5% non-fat milk (Sangon) of 200 μl/well, incubated at room temperature for 1 h, and washed twice with PBST. Antibody was incubated at 10 μg/ml, diluted with 5 times for 10 gradients, 60 μl/well, incubated at room temperature for 1 h, and washed with PBST 5 times. Secondary antibody incubation: anti-hFab 1:10000, 60 μl/well, incubated at room temperature for 1 h, washed with PBST 5 times. Developing: TMB was equilibrated at room temperature for 1 h in advance, 100 μl/well, to develop for 10 min, 2M H₂SO₄ of 50 ul/well was used for termination, and reading was performed at 450 nm on microplate reader.

[3] = target: T2, SIRPα V4 fusion Fc (mouse IgG2a) (human; mouse); experiment: ELISA, plate coated with SIRPα V4-Fc (mouse IgG2a), anti-hFab secondary, OD450
T2 construct: No linker mentioned between SIRPα and Fc
T2 chain: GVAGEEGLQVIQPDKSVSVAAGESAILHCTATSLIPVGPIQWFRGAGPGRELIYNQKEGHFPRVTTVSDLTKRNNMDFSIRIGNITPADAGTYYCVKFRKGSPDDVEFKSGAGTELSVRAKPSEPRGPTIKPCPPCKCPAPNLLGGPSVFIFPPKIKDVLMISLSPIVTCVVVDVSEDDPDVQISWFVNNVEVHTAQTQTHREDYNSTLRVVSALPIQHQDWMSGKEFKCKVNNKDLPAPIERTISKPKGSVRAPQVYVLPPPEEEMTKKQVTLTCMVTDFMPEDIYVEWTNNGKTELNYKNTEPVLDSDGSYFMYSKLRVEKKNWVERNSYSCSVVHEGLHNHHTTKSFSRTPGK
Experimental: as §1

[4] = target: T3, SIRPα V1 fusion Fc (mouse IgG2a) (human; mouse); experiment: ELISA, plate coated with SIRPα V1-Fc (mouse IgG2a), anti-hFab secondary, OD450
T3 construct: No linker mentioned between SIRPα and Fc
T3 chain: T2 chain with G7E, S18L, S24T, I26T, H28R
Experimental: as §1

[5] = target: SIRPα V7 fusion Fc (mouse IgG2a) (human; mouse); experiment: ELISA, plate coated with SIRPα V7-Fc (mouse IgG2a), anti-hFab secondary, OD450
Experimental: as §1

[6] = target: T4, SIRPα V2 fusion Fc (mouse IgG2a) (human; mouse); experiment: ELISA, plate coated with SIRPα V2-Fc (mouse IgG2a), anti-hFab secondary, OD450
T4 construct: No linker mentioned between SIRPα and Fc
Experimental: as §1

[7] = target: T5, SIRPα V6 fusion Fc (mouse IgG2a) (human; mouse); experiment: ELISA, plate coated with SIRPα V6-Fc (mouse IgG2a), anti-hFab secondary, OD450
T5 construct: No linker mentioned between SIRPα and Fc
T5 chain: T2 chain with G7E, S18L, S24T, I26T, H28R, S79P
Experimental: as §1

[8] = target: T6, SIRPα V9 fusion Fc (mouse IgG2a) (human; mouse); experiment: ELISA, plate coated with SIRPα V9-Fc (mouse IgG2a), anti-hFab secondary, OD450
T6 construct: No linker mentioned between SIRPα and Fc
T6 chain: T2 chain with G7E, S18L, S24T, I26T, H28R, G83S
Experimental: as §1

[9] = target: SIRPα V8 fusion Fc (mouse IgG2a) (human; mouse); experiment: ELISA, plate coated with SIRPα V8-Fc (mouse IgG2a), anti-hFab secondary, OD450
Experimental: as §1

T1 sequence (P78324 31-504): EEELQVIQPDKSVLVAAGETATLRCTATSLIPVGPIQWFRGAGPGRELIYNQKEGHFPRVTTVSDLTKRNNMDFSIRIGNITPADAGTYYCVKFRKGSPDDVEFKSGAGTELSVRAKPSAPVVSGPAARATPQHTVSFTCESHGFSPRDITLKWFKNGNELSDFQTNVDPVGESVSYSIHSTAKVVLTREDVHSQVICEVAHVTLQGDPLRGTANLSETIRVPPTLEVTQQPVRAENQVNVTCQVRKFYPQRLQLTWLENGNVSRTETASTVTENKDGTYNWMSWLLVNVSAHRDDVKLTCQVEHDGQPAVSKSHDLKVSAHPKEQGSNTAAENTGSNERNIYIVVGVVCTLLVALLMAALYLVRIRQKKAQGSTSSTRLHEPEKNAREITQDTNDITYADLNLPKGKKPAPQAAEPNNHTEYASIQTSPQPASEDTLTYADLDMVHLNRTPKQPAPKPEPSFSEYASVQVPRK

B1: QP256253 (humanized anti-SIRPα antibody, QP163164 humanized clone) (antibody, human IgG4, V domains shown)
VH: QVQLVQSGAEVKKPGASVKVSCKASGYTFTNYWINWVRQAPGQGLEWIAMIDPSDSETHYNQIFKDRATLTTDTSTSTAYMELRSLRSDDTAVYYCAMDYGSLYAMDYWGRGTLVTVSS
VL: DIVLTQSPDSLAVSLGERATINCRASKSVSSSGYNYIFWYQQKPGQPPKLLIYLASNLDSGVPDRFSGSGSGTDFTLTISSLQAEDVAVYYCQHSRELPTFGQGTKLEIK
- EC50 [1]: 0.204 nM

B2: QP256279 (affinity-matured humanized anti-SIRPα antibody) (antibody, IgG4, V domains shown)
VH: B1 VH
VL: B1 VL with K27Q, S30R, Y36W, L58R
notes: full-length IgG with hIgG4 constant region and kappa CL; also called CHO71 (QP256279 stably expressed in CHOS cells)
- EC50 (read off the curve) [2]: ~0.07 nM
- EC50 (read off the curve) [3]: ~0.06 nM
- EC50 (read off the curve) [4]: ~0.08 nM
- EC50 (read off the curve) [5]: ~0.07 nM
- EC50 (read off the curve) [6]: ~0.07 nM

B3: QP2561586 (affinity-matured humanized anti-SIRPα antibody) (antibody, IgG4, V domains shown)
VH: B1 VH
VL: B1 VL with H94E
notes: hIgG4 constant region, kappa CL
- EC50 [1]: 0.217 nM

Continued, values first:

- EC50 [1]: 0.188 nM
B4: QP2561589 (affinity-matured humanized anti-SIRPα antibody) (antibody, IgG4, V domains shown)
VH: B1 VH
VL: B1 VL with H94E, R96W
notes: as for B3

- EC50 (read off the curve) [7]: ~0.1 nM
- EC50 (read off the curve) [4]: ~0.2 nM
- EC50 (read off the curve) [5]: ~0.1 nM
- EC50 (read off the curve) [8]: ~0.2 nM
- EC50 [1]: 0.245 nM
- EC50 (read off the curve) [9]: ~0.2 nM
B5: QP026249 (control antibody, variable regions of KWAR23, human IgG4/kappa) (antibody)
light: QIVLTQSPAIMSASPGEKVTLTCSASSSVSSSYLYWYQQKPGSSPKLWIYSTSNLASGVPARFSGSGSGTSYSLTISSMEAEDAASYFCHQWSSYPRTFGAGTKLELKRTVAAPSVFIFPPSDEQLKSGTASVVCLLNNFYPREAKVQWKVDNALQSGNSQESVTEQDSKDSTYSLSSTLTLSKADYEKHKVYACEVTHQGLSSPVTKSFNRGEC
heavy: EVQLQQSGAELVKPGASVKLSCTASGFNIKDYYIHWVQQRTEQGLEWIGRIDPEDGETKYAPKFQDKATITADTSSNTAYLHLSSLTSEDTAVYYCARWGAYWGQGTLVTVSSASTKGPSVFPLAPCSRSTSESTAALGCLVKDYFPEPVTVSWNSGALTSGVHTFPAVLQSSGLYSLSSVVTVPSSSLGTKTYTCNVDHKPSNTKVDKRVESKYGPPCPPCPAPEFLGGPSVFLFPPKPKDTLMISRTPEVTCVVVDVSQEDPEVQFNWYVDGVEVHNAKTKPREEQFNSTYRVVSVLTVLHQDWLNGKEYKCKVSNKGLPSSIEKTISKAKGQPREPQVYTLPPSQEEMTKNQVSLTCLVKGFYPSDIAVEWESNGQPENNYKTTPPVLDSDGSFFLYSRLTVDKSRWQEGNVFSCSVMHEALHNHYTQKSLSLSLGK
notes: also called KWAR23 (QP026249)
